{
  "source": "patent US12545745B2",
  "about": "“Method for treating a degenerative neurological disorders comprising administering ASM inhibitor” (KYUNGPOOK NATIONAL UNIVERSITY INDUSTRY-ACADEMIC COOPERATION …, priority 2013, dated 2026)",
  "key": {"ASM [1]": {"target": "T1, ASM (Mus musculus, UniProt Q04519)", "T1 construct": "from tissue; host or cells: mouse serum/plasma and brain tissue (APP/PS1, RSD-stressed C57BL/6, FUS R521C mice)", "T1 sequence (Q04519 45-627)": "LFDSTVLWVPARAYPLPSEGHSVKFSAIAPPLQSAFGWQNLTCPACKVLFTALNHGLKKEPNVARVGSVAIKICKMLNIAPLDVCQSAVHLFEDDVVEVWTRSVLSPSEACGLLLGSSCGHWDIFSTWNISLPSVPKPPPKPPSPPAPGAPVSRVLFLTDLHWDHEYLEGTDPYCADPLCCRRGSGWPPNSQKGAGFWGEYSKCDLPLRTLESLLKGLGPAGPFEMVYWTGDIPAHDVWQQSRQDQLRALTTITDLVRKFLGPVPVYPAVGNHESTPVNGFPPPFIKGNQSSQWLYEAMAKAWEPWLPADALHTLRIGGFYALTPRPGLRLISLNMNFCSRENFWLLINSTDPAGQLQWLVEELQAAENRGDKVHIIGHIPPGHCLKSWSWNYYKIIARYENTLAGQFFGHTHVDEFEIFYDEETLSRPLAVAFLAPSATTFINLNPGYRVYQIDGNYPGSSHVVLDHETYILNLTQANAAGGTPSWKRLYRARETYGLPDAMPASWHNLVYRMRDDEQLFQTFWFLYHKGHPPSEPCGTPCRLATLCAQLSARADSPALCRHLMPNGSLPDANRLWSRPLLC", "test": "ASM activity / concentration level in serum (plasma) and brain tissue of APP/PS1 mice (UPLC)", "format": "in vivo", "conditions": "7-month-old APP/PS1 mice, 50 mg/kg i.p. twice weekly, vs PBS; FIG. 51B", "method": "More specifically, 3 μl of plasma, brain tissue and fibroblast samples from each mouse were mixed with an ASM activity buffer, and stored at 37° C. The hydrolysis reaction was completed by adding 114 μl of ethanol to the mixed solution, and then the mixed solution was centrifuged. 30 μl of the supernatant was transferred into a glass vial, and then 5 μl was applied to the UPLC system. The ASM concentration level was quantified in comparison with a bodipy (aminoacetaldehyde) combined with sphingomyelin and ceramide. The sphingomyelin and ceramide levels were extracted and quantified according to a known method, by extracting lipid from the sample, resuspending the dried lipid extract in 25 μl of 0.2% Igepal CA-630 (Sigma-Aldrich), and quantifying the concentration level of each lipid using the UPLC system. […] The animal test conducted was approved by the Kyungpook National University Institutional Animal Care and Use Committee (IACUC). Transgenic mouse line overexpressing APPswe (hAPP695swe) and PS1 (presenilin-1M146V) based on C57BL/6 mice (Charles River, UK) were used as Alzheimer's animal models [hereinafter, APP mice: mice overexpressing APPswe, PS1 mice: overexpressing presenilin-1M146V; GlaxoSmithKline]. […] The concentration level of ASM was measured as follows. Specifically, 3μ ? of mouse serum, brain tissue and fibroblast samples were mixed with ASM activity buffer and stored at 37° C. 114 μ ? of ethanol was added to terminate the hydrolysis reaction, followed by centrifugation. […] The ASM concentration levels were quantified by comparison with sphingomyelin and Bodipy (aminoacetaldehyde) conjugated with ceramide. The extraction and quantification of the sphingomyelin and ceramide was carried out by extracting and drying the lipids from the sample according to a known conventional method, and resuspending the dried lipid extract to 25 μl of 0.2% Igepal CA-630 (Sigma-Aldrich), and the concentration levels of each lipid were quantitated using the UPLC system. […] The concentration level of ASM was measured as follows. […]"}, "ASM [2]": {"target": "T1, ASM", "test": "ASM activity in plasma of depression-induced (RSD stress) mice", "format": "in vivo", "conditions": "50 mg/kg i.p. twice weekly for 4 weeks prior to induction, vs PBS, FIG. 58B", "description": "The concentration level of ASM was measured as follows. Specifically, 3μ ? of mouse serum, brain tissue and fibroblast samples were mixed with ASM activity buffer and stored at 37° C. 114 μ ? of ethanol was added to terminate the hydrolysis reaction, followed by centrifugation. 30 μ ? of supernatant was transferred to a glass vial, of which 5 μ ? was applied to the UPLC system. The ASM concentration levels were quantified by comparison with sphingomyelin and Bodipy (aminoacetaldehyde) conjugated with ceramide. The extraction and quantification of the sphingomyelin and ceramide was carried out by extracting and drying the lipids from the sample according to a known conventional method, and resuspending the dried lipid extract to 25 μl of 0.2% Igepal CA-630 (Sigma-Aldrich), and the concentration levels of each lipid were quantitated using the UPLC system. […]\nThe concentration level of ASM was measured as follows. […] The ASM concentration levels were quantified by comparison with sphingomyelin and Bodipy (aminoacetaldehyde) conjugated with ceramide. The extraction and quantification of the sphingomyelin and ceramide was carried out by extracting and drying the lipids from the sample according to a known conventional method, and resuspending the dried lipid extract to 25 μl of 0.2% Igepal CA-630 (Sigma-Aldrich), and the concentration levels of each lipid were quantitated using the UPLC system."}, "[3]": {"system": "ALS animal model (FUS R521C)", "test": "Motor function tests (Tail suspension, Hanging wire, Rotarod) in ALS animal model", "format": "in vivo, mouse", "conditions": "ALS mice, 50 mg/kg i.p. twice weekly, vs PBS, FIG. 57A-57C"}, "ASM protein": {"system": "ASM protein", "test": "ASM protein concentration in plasma of APP/PS1 mice (ELISA)", "format": "in vivo, mouse", "conditions": "50 mg/kg i.p. twice weekly, between groups, FIG. 51C"}},
  "data": [
    {"molecule": "ASM-ab 23A12C3: self-made monoclonal ASM antibody, Koma biotech; heavy chain SEQ ID NO. 29, light chain SEQ ID NO. 30 (antibody, 23A12C3_Heavy chain; 23A12C3_Light chain, self-made monoclonal ASM antibody, Koma biotech; 30) heavy: MGWSWIFLFLLSGTAGVHSEVQLQQSGPVLVKPGASVKMSCKASGYTFTDYYMNWVKQSHGKSLEWIGVINPYNDGTSYNQKFKGKATLTVDKSSSTAYMELNSLTSEDSAVYYCAREKLYYYGRDYAMDYWGQGTSVTVSSAKTTPPSVYPLAPGSAAQTNSMVTLGCLVKGYFPEPVTVTWNSGSLSSGVHTFPAVLQSDLYTLSSSVTVPSSTWPSQTVTCNVAHPASSTKVDKKIVPRDCGCKPCICTVPEVSSVFIFPPKPKDVLTITLTPKVTCVVVDISKDDPEVQFSWFVDDVEVHTAQTKPREEQINSTFRSVSELPIMHQDWLNGKEFKCRVNSAAFPAPIEKTISKTKGRPKAPQVYTIPPPKEQMAKDKVSLTCMITNFFPEDITVEWQWNGQPAENYKNTQPIMDTDGSYFVYSKLNVQKSNWEAGNTFTCSVLHEGLHNHHTEKSLSHSPGK light: MSSAQFLGLLLLCFQGTRCDIQMTQTTSSLSASLGDRVTISCRSSQDISNYLNWCQQKPDGTVKLLIYYTSRLHSGVPSRFSGSGSGTDYSLTISNLEQEDIATYFCQQDNTLPYTFGGGTKLEIKRADAAPTVSIFPPSSEQLTSGGASVVCFLNNFYPKDINVKWKIDGSERQNGVLNSWTDQDSKDSTYSMSSTLTLTKDEYERHNSYTCEATHKTSTSPIVKSFNRNEC", "values": [
      {"measurement": "level of ASM concentration (ASM activity) in the plasma", "setting": "ASM [1]", "value": "remarkably low"},
      {"measurement": "level of ASM activity in the plasma", "setting": "ASM [2]", "value": "significantly low"},
      {"measurement": "impairment in motor function", "setting": "[3]", "value": "improved"},
      {"measurement": "plasma ASM protein concentration", "setting": "ASM protein", "value": "no difference"}
    ]}
  ]
}
